The values that follow come from article PMC8596125, “Self‐Stabilized Supramolecular Assemblies Constructed from PEGylated Dendritic Peptide Conjugate for Augmenting Tumor Retention and Therapy” (Advanced Science, 2021).

Data set [1] relates to mouse red blood cells (RBCs). The data set is described as follows: Hemolysis of erythrocytes. Type of data set: cell-based. The settings on record: up to 10.0 mg mL-1, 37 °C, 12 h, absorbance 540 nm. Here is the method:
with 6×105 A549 cells subcutaneously on the right flank for the A549 model. About 2 weeks after implantation, mice with a tumor volume size of 100 mm3 were used for biodistribution and imaging, and mice with a tumor volume size of 50 mm3 for […]
1.3.11 Blood compatibility
Erythrocytes morphologies and aggregation
Erythrocytes were collected from female BALB/c mice, and erythrocytes suspension was prepared by centrifuging the citrated whole blood at 1000 g for 5 min at room temperature. After the plasma and buffy coat layers were removed, the erythrocytes were washed with PBS 3 times. […]
The dried erythrocytes samples were coated with gold and analyzed under a SEM. […]
Erythrocytes were diluted with PBS to prepare the erythrocyte suspension. […] The absorbance of the supernatant was measured with a Microplate Reader at 540 nm, and hemolysis rate was determined using the following […]
Where AS is the absorbance of the sample, A100 is the absorbance of lysed erythrocytes in H2O (a positive control), and A0 is the absorbance of 0% hemolysis in PBS (a negative control). […]
The backs of healthy BALB/c mice were depilated 3 days before treatment to ensure that all injures had recovered. […] The degree of skin response was examined and scored according to Table S5, and Paraffin sections of the skin were stained with hematoxylin and eosin (H&E) according to the manufacturer's instructions.[3] […]

In a further data set the test system is 4T1 cells. Description: Cytotoxicity, CCK-8 assay, 4T1. In kind it is cell-based, mouse. The settings on record: no light, CCK-8, n = 3. The method, then: The CCK-8 assay was used to examine the photodynamic therapeutic effect of SSAs on cell viability against three cell lines. 4×103 4T1 cells per well were seeded in a 96-well plate, and then incubated overnight. The cells were treated with different concentrations of Ppa and SSAs at an equivalent Ppa dose. After 24 h incubation, the medium was replaced with fresh one, and the wells were irradiated using a 660 nm laser with 1 J cm−2. After 24 h, the spent media was replaced and the cell viability was assessed using the CCK-8 reagent. The absorbance at […] of each well was recorded on a microplate reader. Untreated cells were served as a control. Results were presented as the average cell viability by following the manufacturer’s instruction. IC50 values were calculated by using nonlinear regression in software Graphpad Prism7. The cytotoxicity of SSAs and Ppa with or without laser against A549 cell line was also measured through the same procedure.
(§1) The cytotoxicity of SSAs and PDP without laser irradiation was also measured by […]

Another data set concerns L02 cells. The data set is described as follows: Cytotoxicity, CCK-8 assay, L02. In kind it is cell-based, human. To be noted: L02 normal cells, 24 h (PDP 24 h and 48 h), CCK-8, n = 3. The method, then: Academy of Science Cell Bank for Type Culture Collection (Shanghai, China) and cultured in RPMI-1640 medium, supplemented with 10% fetal bovine serum (FBS), penicillin G (100 U mL-1) and streptomycin (100 μg mL-1), and incubated in 5% CO2 […]
1.3.7 In vitro ROS generation
The intracellular ROS generation was analyzed by using a peroxide-sensitive fluorescent probe, 2′, 7′- dichlorofluorescin-diacetate (DCFH-DA, Beyotime, Beijing, China). According to the manufacturer’s instruction, cells (1×10^6 cells per well) were treated SSAs and Ppa at the same concentration of 1 μg Ppa mL-1. […] 20,000 events were collected and Flowjo software was used for quantifying the intensity of fluorescence.
The CCK-8 assay was used to examine the photodynamic therapeutic effect of SSAs on cell viability against three cell lines. […] After 24 h, the spent media was replaced and the cell viability was assessed using the CCK-8 reagent. The absorbance at […] of each well was recorded on a microplate reader. […] IC50 values were calculated by using nonlinear regression in software Graphpad Prism7. The cytotoxicity of SSAs and Ppa with or without laser against A549 cell line was also measured through the same procedure.
as §1
For orientation: Tetrazolium assays rely on reduction of a dye to a coloured formazan, in cell work by metabolically active cells.

Data set [2] is described as follows: Size, PDI and zeta potential by DLS. Type of data set: physicochemical. The method, then: (§2) 1.3.2 Size, zeta potential and morphology
(§3) The size, polydispersity index (PDI), correlation coefficient and zeta potential of self-stabilized supramolecular assemblies (PDPP) were measured by DLS, and the morphology and particle size of PDPP were observed under a TEM. […]
(§4) 1.3.3 Colloidal stability
(§5) The colloidal stability of PDPP was assessed by monitoring the change in the size and PDI as a function of time. PDPP were added in H2O, PBS, H2O containing 10% of fetal bovine serum (FBS), and PBS containing 10% of FBS respectively, and these mixtures were incubated at 37℃ in a humidified chamber, and their sizes and PDI were monitored by DLS at a pre-determined time. […]

Data set [3] in a line: Colloidal stability (size and PDI over time by DLS). Type of data set: physicochemical. The settings on record: H2O, PBS, H2O or PBS with 10% FBS, 37 °C, 7 d, n = 3. The method, then:
as §2, §3, §4, §5

The nature of data set [4]: Disassembly behavior in Triton X-100, NaCl or urea (DLS). Type of data set: physicochemical. To be noted: 1 h incubation, n = 6. Here is the method: as §2
(§6) The size, polydispersity index (PDI), correlation coefficient and zeta potential of self-stabilized supramolecular assemblies (PDPP) were measured by DLS, and the morphology and particle size of PDPP were observed under a TEM. Briefly, PDPP was dissolved in Milli-Q water and ultrasonically dispersed to prepare PDPP solutions at different concentrations (0.1, 0.5, 1.0, 5.0, and 10.0 mg mL-1) for DLS, TEM measurements. Furthermore, the effects of hydrophobic force, ionic interaction, and hydrogen bonding on the supramolecular self-assembly of PDPP were assessed by adding Triton X-100, NaCl, and urea to the PDPP solution with the final concentrations of 1, 5, 10, 20, 50 and 100 mM for Triton X-100, NaCl, and urea. After incubation for 1 h, the size changes of PDPP were recorded by DLS. […]

Data set [5] can be described thus: Critical assembly concentration (pyrene fluorescence probe). In kind it is physicochemical. To be noted: in H2O, pyrene as fluorescence probe. Here is the method:
Ppa was dissolved in anhydrous DMSO and then diluted in different concentrations.
The absorbance values of PDPP at 667 nm were obtained and the drug loading was calculated according to the standard absorption curve. Drug loading content (DLC) = (weight of Ppa in PDPP / weight of PDPP) × 100%.
as §2
as §6, with “Briefly, PDPP was dissolved in Milli-Q water and ultrasonically dispersed to prepare PDPP solutions at different concentrations (0.1, 0.5, 1.0, 5.0, and 10.0 mg mL-1) for DLS, TEM measurements.” left out
as §5
The CAC of PDPP was determined by using pyrene as a fluorescence probe. […]
Fluorescence emission spectrum […]

On to PEG‐dendritic peptide [PDP], for which the Hemolysis entry in data set [1] was “no hemolysis is observed and detected”. Besides, the “Cytotoxicity without laser irradiation” value in the data set with 4T1 cells and in the data set with L02 cells was “no significant cytotoxicity” each time.
For “PEG‐dendritic peptide‐pyropheophorbide a [PDPP]”, the PDI came to 0.152±0.036 in data set [2] (in H2O), 0.167±0.012 in data set [2] (in H2O+10%FBS), 0.137±0.036 in data set [2] (in PBS) and 0.154±0.013 in data set [2] (in PBS+10%FBS). For the same substance, the Size in data set [2] (in H2O) was 104.68 ± 15.10 nm·days; in data set [2] (in H2O+10%FBS) it was 96.13 ± 9.72 nm·days; in data set [2] (in PBS), 100.38 ± 19.12 nm·days; in data set [2] (in PBS+10%FBS), 102.58 ± 8.94 nm·days. The “Zeta Potential” value in data set [2] (in H2O) was -25.49±0.58 mV; in data set [2] (in H2O+10%FBS), -13.57±0.85 mV; in data set [2] (in PBS) it was -5.28±7.86 mV; in data set [2] (in PBS+10%FBS), -7.34±0.94 mV. In addition, in data set [3], the “Colloidal stability: size and PDI over time” value is on record as “remain unchanged for 7 d”. In data set [4] (1-100 mM NaCl or urea), the “Change in size and PDI after dispersion in NaCl or urea solution” value is recorded as “no significant change”. The “Disassembly behavior in Triton solution” value in data set [4] (Triton X-100 at a high concentration (1-100 mM tested)) was “disassembly behaviors of PDPP would have occurred”. For the same substance, the “Critical assembly concentration (CAC)” value in data set [5] worked out at 4.85 µg/mL.
